Data set [1] has as its system MOLM-14 cells. Kind of data set: MTT cytotoxicity of calicheamicin on MOLM-14 cells. The data set is classed as cell-based, human. The note with it: 24 h, 100 μM peptide or sdAb. The method, then: (§1) Log-phase MOLM-14, Ramos (RA 1), HT-29, LS174T, or NCI-N87 cells were seeded in 96-well microtiter plates at a density of 20,000 cells/well, 20,000 cells/well, 5,000 cells/well, 5,000 cells/well, and 10,000 cells/well, respectively, in 100 μL of culture medium. HT-29, LS174T, and NCI-N87 cells were allowed to adhere for 24 h before cell culture media was aspirated and replaced with 100 μL of fresh media containing a range of treatment for, 48 (LS174T), 96 (NCI-N87), or 120 (HT-29) h. MOLM-14 and Ramos cells were re-suspended with treatment solutions, where 100 μL of cell-treatment suspension was aliquoted into wells of a 96-well plate for 24 h. Treatment solutions consisted of calicheamicin, MMAE, topotecan, or SN38 with or without immunized animal plasma, purified anti-drug antibody, or antibody-drug conjugate (ADC) with or without plasma or anti-drug antibody. For MOLM-14 and Ramos cells, 25 μL of MTT solution (5 mg/mL in pH 7.4 1× PBS) was added directly to wells following treatment incubation. For adherent cells, treatment media was aspirated from wells and cells were washed three times with 100 μL of fresh media. Following the final wash, 100 μL of complete media and 25 μL of MTT solution were added to each well. Cells were incubated for 4 h in order to allow cells to reduce MTT to formazan dye. Once MTT was reduced, 100 μL of 10% SDS prepared in 0.01 M HCl was added to each well and incubated overnight to solubilize the formazan crystals. Formazan dye was measured at 570 nm and normalized by cell debris at 690 nm.
(§2) Fresh media containing a range of treatment were pre-incubated with or without 100 μM purified sdAb at room temperature for 30 minutes. Log-phase MOLM-14 cells were seeded in 96-well microtiter plates at a density of 20,000 cells/well, and were re-suspended with treatment solutions, where 100 μL of cell-treatment suspension was aliquoted into wells of a 96-well plate for 24 h. 25 μL of MTT solution (5 mg/mL in pH 7.4 1× PBS) was added directly to wells following treatment incubation. […] Formazan dye was measured at 570 nm and normalized by cell debris at 690 nm.

Data set [2] concerns Lovo cells. Kind of data set: MTT cytotoxicity of DM1 and DM4 on Lovo cells. The data set is classed as cell-based. The note with it: for IC50: DM1 alone, read-out: IC50 of DM1. The procedure: Log-phase Lovo or MOLM-14 cells were seeded in 96-well microtiter plates at a density of 5,000 cells/well, in 100 μL or 70 μL of culture medium, respectively. […] MOLM-14 cells were re-suspended with treatment solutions, where 100 μL of cell-treatment suspension was aliquoted into wells of a 96-well plate for 24 h. Treatment solutions consisted of DM-4 with or without purified anti-drug sdAb. For MOLM-14 cells, 10 μL of MTT solution (5 mg/mL in pH 7.4 1× PBS) was added directly to wells following treatment incubation. For adherent cells, treatment media was aspirated from wells and cells were washed three times with 100 μL of fresh media. Following the final wash, 100 μL of complete media and 25 μL of MTT solution were added to each well. Cells were incubated for 4 h in order to allow cells to reduce MTT to formazan dye. Once MTT was reduced, 100 μL of 10% SDS prepared in 0.01 M HCl was added to each well and incubated overnight to solubilize the formazan crystals. Formazan dye was measured at 570 nm and normalized by cell debris at 690 nm.

The test system of data set [3] is SK-BR-3 cells. Nature of the data set: MTT cytotoxicity assay in SK-BR-3 cells. It counts as cell-based.
For data set [4], the system named is NCI-N87 cells. Nature of the data set: Cell cytotoxicity with exatecan and trastuzumab deruxtecan, NCI-N87 cells. It counts as cell-based. The note with it: for IC50: free exatecan alone. The method, then: Cells were incubated with the drug mixture for 24 hours at 37° C., 5% CO2. After incubation drug containing cell culture media was aspirated and 250 μL of fresh RPMI was added, allowing cells to grow for another 4 days. Then cell culture media was aspirated and 125 μL of RPMI with a final concentration of 1 mg/ml MTT was added followed by a four-hour incubation. MTT crystals were dissolved in 0.01 M HCL/10% SDS overnight at 37° C. followed by absorbance reading at 570 nm (corrected to 640 nm).

Data set [5] has as its system Ramos cells. Nature of the data set: MTT cytotoxicity of calicheamicin on Ramos cells. The data set is classed as cell-based. As to conditions: 24 h, calicheamicin alone. The method, then:
as §1, §2

In data set [6] the test system is SK-BR-3 cells. Kind of data set: MTT cytotoxicity assay in SK-BR-3 cells. It counts as cell-based. The note with it: 24 h exposure, 10 μM sdAb. The procedure:
Positive clone sdAbs' DNA in pComb3XSS plasmid was isolated and transferred into pET-22b expression vector in SHuffle cells for expression. SK-BR-3 cells were used to test the anti-DM4 sdAbs effect on DM4 cytotoxicity. Briefly, 2,500 cells/well were seeded into a 96-well plate and allowed to adhere for 24 h before cell culture media was aspirated and replaced with 100 μL of fresh media solution containing with or without 10 μM of anti-DM4 sdAb and a range of DM4 concentration for another 24 h exposure period. The cells were then washed 2 times before replacing with fresh media and allowed to grow for additional 72 h.

A short description of data set [7]: Competitive ELISA with free DM4. The note with it: for Kd: free DM4, read-out: Estimated KD; for IC50: read-out: Estimated binding affinity IC50 to free DM4. The data set is classed as binding. The procedure:
To determine the binding affinity of the anti-DM4 sdAbs to DM4-conjugates and free DM4, indirect ELISA and competitive ELISA were employed. Briefly, ELISA plate were coated overnight with 100 μL of neutravidin at different concentration ranging from 1 μg/mL to 10 μg/mL. After blocking with 200 μL of 2% skimmed milk-PBST for 1 h, 100 μL of 1 μM biotin-DM4 solution was added into each well and incubated for 30 min, then 100 μL of purified anti-DM4 sdAb solution at concentration ranging from 0.1 nM to 1 μM was added and incubated for 1 h. Bound sdAbs were detected with HRP conjugated anti-His antibody and TMB substrate. After the linear range of binding was determined via the indirect ELISA, a concentration of anti-DM4 sdAb near the IC50 of binding was selected to proceed with competitive ELISA. For the competitive ELISA, anti-DM4 sdAb concentration was held constant as determined from the indirect ELISA and incubated with increasing concentration of DM4 ranging from 0.1 nM to 1 μM.

Where “and” joins values, the source holds several entries; their conditions need not be identical. Identical values can stand only once. Entries after “also recorded” stand apart in the source; their conditions may differ. Like-named read-outs stand apart in the source and are kept apart here.

Turning to “anti-calicheamicin peptide HSWHWPSWWAGGGGGS (SEQ ID NO:1) [C2]”, the “fold change of calicheamicin IC50” value in data set [1] worked out at 5.69 fold.

Regarding “anti-calicheamicin peptide SWWFPQWMAQYPGGGS (SEQ ID NO:2) [C9]”, in data set [1], the “fold change of calicheamicin IC50” value was determined as 3.56 fold.

`COc1cc2cc(c1Cl)N(C)C(=O)C[C@H](OC(=O)[C@H](C)N(C)C(=O)CCS)[C@]1(C)O[C@H]1[C@H](C)[C@@H]1C[C@@](O)(NC(=O)O1)[C@H](OC)/C=C/C=C(\C)C2` [DM1]: the IC50 is 30.5 nM and 22.1 nM in data set [2] (6 h exposure); 3.07 nM and 2.12 nM in data set [2] (24 h exposure); 4.43 nM in data set [3] (24 h exposure, DM1 alone, read-out: IC50 of DM1).

For `CC[C@@]1(O)C(=O)OCc2c1cc1n(c2=O)Cc2c-1nc1cc(F)c(C)c3c1c2[C@@H](N)CC3` [exatecan, reference compound], the IC50 in data set [4] (Homo sapiens, NCI-N87, NCI-N87 cells) worked out at 1.5 nM; in data set [4] (NCI-N87 cells), 2.1 nM.

Consider T-DM1 [reference compound], for which the IC50 in data set [3] (24 h, without DMFH1, read-out: IC50 of T-DM1) stood at 0.0128 nM.

In the case of calicheamicin, the IC50 was 2.5 nM and 2.98 nM in data set [5]; 2.5 ± 0.224 nM in data set [5] (listed as Calicheamicin).

B1: 8C2 Fab: Fab of 8C2 by papain digestion; heavy SEQ ID NO:4, light SEQ ID NO:5 (antibody)
heavy: MKCSWVIFFLMAVVTGVNSEEVQLQQSGAELVKPGASVKLSCTASGFNIKDTYIHWVKQRPEQGLEWIGMIDLANDNTKYDPKFQGKATIITDTSSNKAYLQVSSLTSEDTAVYYCATWGAIITLGGWGQGTLVTVSAAKTTPPSVYPLAPGSAAQTNSMVTLGCLVKGYFPEPVTVTWNSGSLSSGVHTFPAVLQSDLYTLSSSVTVPSSTWPSETVTCNVAN
light: MSVLTQVLALLLLWLTGARCDIQMTQSPASLSASVGETVTITCRASGNIHNSLAWYQQIKGRSPQLLVYNAKTLADGVPSRFSGSGSGTQYSLKINSLHPEDFGSYYCQHFWSTPFTFGSGTKLEIKRADAAPTVSIFPPSSEQLTSGGASVVCFLNNFYPKDINVKWKIDGSEERQNGVLNSWTDQDSKDSTYSMSSTLTLTKD
modifications: 8C2 Fab heavy chain; 8C2 Fab light chain
In the case of B1, the “effect on trastuzumab deruxtecan cytotoxicity” value in data set [4] (NCI-N87 cells, ADC with 8C2 mAb or Fab) is “did not prevent cell death; also recorded: does not significantly alter”.

B2: DF3A4 (protein)
VHH: QVQLQESGGGLVQPGGSLRLSCAASGSIFGISYMGWYRQAPGKQREPVALITSGGSTYYADSVKGRVTISRDNAKKTVYLQMNSLRPEDTSTYYCAAGFYRSDSPNRYDYWGQGTQVTVSS
modifications: DF3A4
On to B2, for which, in data set [2] (6 h exposure), the “fold shift of DM4 IC50” value was 5.88 fold. For the same molecule, the “fold shift of DM1 IC50” value in data set [2] (6 h exposure, 10 μM sdAb) was 14.8 fold.

B3: DMFF2 (protein)
VHH: QVQLQESGGGLVQPGGSLRLSCAASGSIFGISYMGWYRQAPGKQREPVALITSGGSTYYVDSVKGRVTISRDNAKKTVYLQMNSLRPEDTSTYYCAAGYYRSDSPNRYDYWGQGTQVTVSS
modifications: DMFF2
For B3, in data set [6], the “Fold shifted (DM4 IC50)” value is 95 fold and 93.65 fold. Moreover, in data set [7], the Kd was 57 nM and 56.6 nM; the IC50 is 57 nM.

B4: DMOF8 (protein)
VHH: QVQLQESGGGLVQPGGSLRLSCAASGSIFGISYMGWYRQAPGKQREPVAMITSSGSTYYADSVRGRVTISRANAKKTVYLQMNSLRPEDTSTYYCAAGYYRSDSPNRYDYWGQGTQVTVSS
modifications: DMOF8
B4: the “Fold shifted (DM4 IC50)” value in data set [6] is 104 fold and 104.1 fold. Also, in data set [7], the Kd is 26 nM and 26.2 nM; the IC50 was 26 nM.

B5: DMFH2 (protein)
VHH: QVQLQESGGGLVQPGGSLRLSCAASGSTFGISYMGWYRQAPGKQREPVAMITSGGSTYYVDSVKGRVTISRDNAKKTVYLQMNSLRPEDTSTYYCAAGFYRSDSPNRYDYWGQGTQVTVSS
modifications: DMFH2
For the molecule B5, the “Fold shifted (DM4 IC50)” value in data set [6] is 150 fold and 149.4 fold. Further, in data set [7], the Kd was 25 nM and 25.2 nM; the IC50 is 25 nM.

B6: DMFB8 (protein)
VHH: QVQLQESGGGLVQPGGSLRLSCAASGSIFGISYMGWYRQAPGKQREPVAMITSGGSTYYADSVKGRVTISRDNAKKTVYLQMYSLRPEDTSTYYCAAGYYRSDSPNRYDYWGQGTQVTVSS
modifications: DMFB8
For B6, in data set [6], the “Fold shifted (DM4 IC50)” value is 140 fold and 140.2 fold.

B7: DF4B12 (protein)
VHH: EVQLVESGGGLVQPGGSLRLSCAASGSIFGISYMGWYRQAPGKQREPVALITSGGDTAYGDSVKGRFTISRDNAKNTVYLQMNSLTPEDTSTFYCAAGFYRSDSPNRYDYWGQGTQVTVSS
modifications: DF4B12
Regarding B7, the “fold shift of DM4 IC50” value was 15.5 fold in data set [2] (6 h exposure); 8.66 fold and 9.4 fold in data set [2] (24 h exposure, 10 μM sdAb). The “fold shift of DM1 IC50” value in data set [2] (6 h exposure, 10 μM sdAb) is listed as 53 fold.

B8: DMOH9: affinity matured Anti-DM1/DM4 sdAb, SEQ ID NO:32 (protein)
VHH: QVQLQESGGGLVQPGGSLRLSCAASGSIFGITYMGWYRQAPGKQREPVAMITSGGSTYYADSVKGRVTISRDNAKKTVYLQMNSLRPEDTSTYYCAAGYYRSDSPNRYDYWGQGTQVTVSS
modifications: DMOH9
For the molecule B8, the “Fold shifted (DM4 IC50)” value in data set [6] was 210 fold and 209.5 fold. Also, in data set [7], the Kd is 20 nM and 19.9 nM; the IC50 is 20 nM.

(Values after patent US12624123B2, “Compositions and methods for reducing off-target toxicity of antibody drug conjugates” (The Research Foundation for The State University of New York, priority 2019, dated 2026).)
